Experimental data taken from article PMC8967717 (Nature, 2022).
Where “and” joins values, the source holds several entries; their conditions need not be identical. Identical values can stand only once.

How the values were obtained:
[1] = target: T1, SARS-CoV-2 Omicron RBD (ACROBiosystems, cat. no. SPD-C522e) (SARS-CoV-2, Omicron B.1.1.529 (BA.1), G339D | S371L | S373P | S375F | K417N | N440K | G446S | S477N | T478K | E484A | …); assay: BLI; settings: both partners purified
T1 construct: source: bought: ACROBiosystems

[2] = target: prefusion-stabilized SARS-CoV-2 Omicron (B.1.1.529) S trimer (SARS-CoV-2, Omicron B.1.1.529 (BA.1), A67V | Δ69–70 | T95I | G142D | Δ143–145 | Δ211 | L212I | ins214EPE | G339D | …); assay: cryo-EM structure; settings: both partners purified
[3] = target: SARS-CoV-2 wild-type spike (S) protein (SARS-CoV-2, WT (MN908947), UniProt P0DTC2); assay: cell-based or functional assay

Row | Binder | stoichiometry N [2] | authentic virus IC50(μg/ml), Wild-type [3] [µg/mL] | pseudovirus IC50(μg/ml), Wild-type [3] [µg/mL] | other results
1 | XGv282 monoclonal antibody (antibody, V domains shown, IgG1; copies: 2 + 2) VH: QVQLVQSGAEVKKPGSSVKVSCKASGDTFSSYTFSWVRQAPGQGLEWMGRSIPIVGKAIYAQEFQGRVTISADRSTTTVYMELSSLRSDDTAVYYCARDQSGFDFFYYDHWGQGTLVAVSS VL: QSVLTQPPSASGTPGQRVTISCSGSGSNIGSNTINWYQQLPGTAPKVLIYRNNERPSGVPDRFSGSKSGTSASLTISGLQSEDEAYYHCAAWDDSLNGPVFGGGTKLTVL |  |  |  | fold reduction in binding affinity against WT S [1]: 5 fold
2 | XGv282 Fab fragment (Fab, V domains shown) VH: QVQLVQSGAEVKKPGSSVKVSCKASGDTFSSYTFSWVRQAPGQGLEWMGRSIPIVGKAIYAQEFQGRVTISADRSTTTVYMELSSLRSDDTAVYYCARDQSGFDFFYYDHWGQGTLVAVSS VL: QSVLTQPPSASGTPGQRVTISCSGSGSNIGSNTINWYQQLPGTAPKVLIYRNNERPSGVPDRFSGSKSGTSASLTISGLQSEDEAYYHCAAWDDSLNGPVFGGGTKLTVL | 3 Fabs per S trimer |  |  | 
3 | XGv282 (antibody, V domains shown) VH: QVQLVQSGAEVKKPGSSVKVSCKASGDTFSSYTFSWVRQAPGQGLEWMGRSIPIVGKAIYAQEFQGRVTISADRSTTTVYMELSSLRSDDTAVYYCARDQSGFDFFYYDHWGQGTLVAVSS VL: QSVLTQPPSASGTPGQRVTISCSGSGSNIGSNTINWYQQLPGTAPKVLIYRNNERPSGVPDRFSGSKSGTSASLTISGLQSEDEAYYHCAAWDDSLNGPVFGGGTKLTVL |  | 0.00102 | 0.007 | 
4 | XGv289 Fab fragment (Fab, V domains shown) VH: QVQLVQSGAEVKKPGASLKVSCRASGYTFTSHFIHWVRQAPGQGLEWMGIINPSGGASYAQNFRDRVTMTTDPSTSTVYMELGSLRSEDTAVYYCARAEGSSWLGWFDPWGQGTLVTVSS VL: QSVLTQPPSASGTPGQRVTIPCSGSSSNIGNNYVYWYQQLPGTAPKLLVYGNNQRPSGVPDRFSVSKSGTSASLAISGLRSEDEADYYCAAWDDGLSGSGWVFGGGTKLTVL | 3 Fabs per S trimer |  |  | 
5 | XGv289 (antibody, V domains shown) VH: QVQLVQSGAEVKKPGASLKVSCRASGYTFTSHFIHWVRQAPGQGLEWMGIINPSGGASYAQNFRDRVTMTTDPSTSTVYMELGSLRSEDTAVYYCARAEGSSWLGWFDPWGQGTLVTVSS VL: QSVLTQPPSASGTPGQRVTIPCSGSSSNIGNNYVYWYQQLPGTAPKLLVYGNNQRPSGVPDRFSVSKSGTSASLAISGLRSEDEADYYCAAWDDGLSGSGWVFGGGTKLTVL |  | 0.0061 | 0.00928 | 
6 | XGv347 monoclonal antibody (antibody, V domains shown, copies: 2 + 2) VH: QMQLVQSGPEVKKPGTSVKVSCKASGFTFTDVSSLQWVRQARGQRLEWIGWTVVGTGNTNYAPRFQERVTITTDKSTSTAYMELSSLRSEDTAVYYCAAPFCSETSCSDGFDLWGQGTKVTVSS VL: EIVLTQSPGTLSLSPGDRATLSCRASQSVRISYLAWYQQKPGQAPRLLISGSSSRATGIPDRFSASGSGTDFALTISRLEPEDFAVYYCQQYDNSPWTFGQGTKVEVK |  |  |  | fold decrease in binding against WT S [1]: 40 fold
7 | XGv347 (antibody, V domains shown) VH: QMQLVQSGPEVKKPGTSVKVSCKASGFTFTDVSSLQWVRQARGQRLEWIGWTVVGTGNTNYAPRFQERVTITTDKSTSTAYMELSSLRSEDTAVYYCAAPFCSETSCSDGFDLWGQGTKVTVSS VL: EIVLTQSPGTLSLSPGDRATLSCRASQSVRISYLAWYQQKPGQAPRLLISGSSSRATGIPDRFSASGSGTDFALTISRLEPEDFAVYYCQQYDNSPWTFGQGTKVEVK |  | 0.0061 | 0.0685 | 
8 | XGv347 Fab fragment (Fab, V domains shown) VH: QMQLVQSGPEVKKPGTSVKVSCKASGFTFTDVSSLQWVRQARGQRLEWIGWTVVGTGNTNYAPRFQERVTITTDKSTSTAYMELSSLRSEDTAVYYCAAPFCSETSCSDGFDLWGQGTKVTVS VL: EIVLTQSPGTLSLSPGDRATLSCRASQSVRISYLAWYQQKPGQAPRLLISGSSSRATGIPDRFSASGSGTDFTLTISRLEPEDFAVYYCQQYANSPWTFGQGTKVEV | 3 Fabs per S trimer and 2 Fabs per S trimer |  |  | 
9 | XGv265 Fab fragment (Fab, V domains shown) VH: QITLKESGPTLVKPTQTLTLTCNFSGFSLNTYGVGVGWIRQPPGKALEWLALIYWDGDERYGPFFKNKVTIAKDTSKNQVVLTMTNMDPVDTATYYCARHLIPTIFDYWGQGTLVTVSS VL: QSALTQPASVSGSPGQSITISCTGTSSDVGGSNYVSWYQHHPDRAPKLLIYEVTNRPSGVSNRFSGSKSANTASLTISGLQAEDEADYYCSSYTTTSTHILFGGGTKLTV | 2 Fabs per S trimer |  |  | 
10 | XGv265 (antibody, V domains shown) VH: QITLKESGPTLVKPTQTLTLTCNFSGFSLNTYGVGVGWIRQPPGKALEWLALIYWDGDERYGPFFKNKVTIAKDTSKNQVVLTMTNMDPVDTATYYCARHLIPTIFDYWGQGTLVTVSS VL: QSALTQPASVSGSPGQSITISCTGTSSDVGGSNYVSWYQHHPDRAPKLLIYEVTNRPSGVSNRFSGSKSANTASLTISGLQAEDEADYYCSSYTTTSTHILFGGGTKLTV |  | 0.0122 | 0.0105 | 
